Assay results as given in patent US20240343771A1 (Chugai, published 2024).
Residue numbers refer to the chain shown, from its start. Names and notes keep the numbering of the source.

T1: human IL-12 (human, UniProt P29460 23-328; P29459 23-219)
T1 construct: also called Interleukin-12
T1 sequence 1: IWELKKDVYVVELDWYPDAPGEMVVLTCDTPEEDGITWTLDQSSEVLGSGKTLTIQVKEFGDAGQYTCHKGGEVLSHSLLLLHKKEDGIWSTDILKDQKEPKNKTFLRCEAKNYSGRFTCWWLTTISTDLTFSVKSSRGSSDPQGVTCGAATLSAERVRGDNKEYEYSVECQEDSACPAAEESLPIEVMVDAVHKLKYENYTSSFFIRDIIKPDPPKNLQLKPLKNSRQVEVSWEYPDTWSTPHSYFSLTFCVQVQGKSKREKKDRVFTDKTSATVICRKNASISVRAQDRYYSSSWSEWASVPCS
T1 sequence 2: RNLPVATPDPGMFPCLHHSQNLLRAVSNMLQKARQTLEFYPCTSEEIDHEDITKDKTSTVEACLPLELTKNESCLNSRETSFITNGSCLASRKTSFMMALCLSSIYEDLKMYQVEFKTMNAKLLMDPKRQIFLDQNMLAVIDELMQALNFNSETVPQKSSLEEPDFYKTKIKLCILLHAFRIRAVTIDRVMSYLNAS

B1: Anti-IL-12 antibody Ab1 (Ab101H-12aa-C8/Ab102L-SK1) (antibody)
heavy: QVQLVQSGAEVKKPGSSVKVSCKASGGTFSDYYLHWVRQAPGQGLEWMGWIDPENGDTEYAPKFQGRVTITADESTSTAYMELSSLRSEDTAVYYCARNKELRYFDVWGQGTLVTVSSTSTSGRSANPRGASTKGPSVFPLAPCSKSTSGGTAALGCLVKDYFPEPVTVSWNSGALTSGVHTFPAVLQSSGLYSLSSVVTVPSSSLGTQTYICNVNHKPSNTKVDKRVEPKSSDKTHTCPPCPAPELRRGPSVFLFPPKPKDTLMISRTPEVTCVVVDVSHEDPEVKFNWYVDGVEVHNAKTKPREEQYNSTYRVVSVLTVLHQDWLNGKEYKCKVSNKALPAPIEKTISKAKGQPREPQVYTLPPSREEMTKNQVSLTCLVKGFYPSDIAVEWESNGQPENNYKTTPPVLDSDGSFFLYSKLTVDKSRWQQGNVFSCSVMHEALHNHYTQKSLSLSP
light: DIVMTQSPLSLPVTPGEPASISCRASQSISINLHWYQQKPGQAPRLLIYFASQSISGVPSRFSGSGSGTDFTLTISSLQPEDFATYYCQQSNSFPLTFGQGTKVEIKRTVAAPSVFIFPPSDEQLKSGTASVVCLLNNFYPREAKVQWKVDNALQSGNSQESVTEQDSKDSTYSLSSTLTLSKADYEKHKVYACEVTHQGLSSPVTKSFNRGEC
notes: Homodimer of light chain and heavy chain; also called -/- (control)
B2: Anti-IL-12 antibody Ab1 variant V37Q VH/- (antibody, name in Kabat numbering, V domains shown)
VH: QVQLVQSGAEVKKPGSSVKVSCKASGGTFSDYYLHWQRQAPGQGLEWMGWIDPENGDTEYAPKFQGRVTITADESTSTAYMELSSLRSEDTAVYYCARNKELRYFDVWGQGTLVTVSS
VL: DIVMTQSPLSLPVTPGEPASISCRASQSISINLHWYQQKPGQAPRLLIYFASQSISGVPSRFSGSGSGTDFTLTISSLQPEDFATYYCQQSNSFPLTFGQGTKVEIKR
notes: Ab1 with VH/VL interface substitutions; Kabat numbering
B3: Anti-IL-12 antibody Ab1 variant -/Y87L VL (antibody, V domains shown)
VH: B2 VH with Q37V
VL: B2 VL with Y87L
notes: as for B2
B4: Anti-IL-12 antibody Ab1 variant F100aI VH/L46Q, Y49A VL (antibody, name in Kabat numbering, V domains shown)
VH: B2 VH with Q37V, F105I
VL: B2 VL with L46Q, Y49A
notes: as for B2
B5: Anti-IL-12 antibody Ab1 variant -/A43Q VL (antibody, V domains shown)
VH: B2 VH with Q37V
VL: B2 VL with A43Q
notes: as for B2
B6: Anti-IL-12 antibody Ab1 variant F100aI VH/L46Q, Y49A, Y87M VL (antibody, name in Kabat numbering, V domains shown)
VH: B2 VH with Q37V, F105I
VL: B2 VL with L46Q, Y49A, Y87M
notes: as for B2
B7: Anti-IL-12 antibody Ab1 variant -/L46Q VL (antibody, V domains shown)
VH: B2 VH with Q37V
VL: B2 VL with L46Q
notes: as for B2
B8: Anti-IL-12 antibody Ab1 variant -/P44S VL (antibody, V domains shown)
VH: B2 VH with Q37V
VL: B2 VL with P44S
notes: as for B2
B9: Anti-IL-12 antibody Ab1 variant -/F98M VL (antibody)
heavy: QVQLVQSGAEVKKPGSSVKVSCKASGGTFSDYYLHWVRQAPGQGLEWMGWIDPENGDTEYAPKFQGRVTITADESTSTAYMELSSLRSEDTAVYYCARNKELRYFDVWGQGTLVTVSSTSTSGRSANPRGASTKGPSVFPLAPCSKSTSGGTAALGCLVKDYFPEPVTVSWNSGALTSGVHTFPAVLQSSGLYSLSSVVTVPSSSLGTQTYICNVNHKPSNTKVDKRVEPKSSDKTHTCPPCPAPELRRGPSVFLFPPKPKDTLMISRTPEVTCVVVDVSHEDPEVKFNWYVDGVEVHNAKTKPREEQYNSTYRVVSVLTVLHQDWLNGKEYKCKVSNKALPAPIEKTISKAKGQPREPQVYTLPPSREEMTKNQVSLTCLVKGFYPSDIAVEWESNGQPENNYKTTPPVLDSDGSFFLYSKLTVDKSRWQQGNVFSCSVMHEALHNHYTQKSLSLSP
light: B1 light with F98M
notes: as for B2
B10: Anti-IL-12 antibody Ab1 variant L45A VH/- (antibody, name in Kabat numbering, V domains shown)
VH: B2 VH with Q37V, L45A
VL: B2 VL
notes: as for B2
B11: Anti-IL-12 antibody Ab1 variant -/Y87M VL (antibody, V domains shown)
VH: B2 VH with Q37V
VL: B2 VL with Y87M
notes: as for B2
B12: Anti-IL-12 antibody Ab1 variant F100aI VH/Y49A, Y87L VL (antibody, name in Kabat numbering, V domains shown)
VH: B2 VH with Q37V, F105I
VL: B2 VL with Y49A, Y87L
notes: as for B2
B13: Anti-IL-12 antibody Ab1 variant -/P44Q VL (antibody, V domains shown)
VH: B2 VH with Q37V
VL: B2 VL with P44Q
notes: as for B2
B14: Anti-IL-12 antibody Ab1 variant F100aI VH/A43Q, Y49A VL (antibody, name in Kabat numbering, V domains shown)
VH: B2 VH with Q37V, F105I
VL: B2 VL with A43Q, Y49A
notes: as for B2
B15: Anti-IL-12 antibody Ab1 variant F100aI VH/A43Q, L46Q, Y49A VL (antibody, name in Kabat numbering, V domains shown)
VH: B2 VH with Q37V, F105I
VL: B2 VL with A43Q, L46Q, Y49A
notes: as for B2
B16: Anti-IL-12 antibody Ab1 variant -/Y49A VL (antibody, V domains shown)
VH: B2 VH with Q37V
VL: B2 VL with Y49A
notes: as for B2
B17: Anti-IL-12 antibody Ab1 variant L45Q VH/A43Q, Y49A VL (antibody, name in Kabat numbering, V domains shown)
VH: B2 VH with Q37V, L45Q
VL: B2 VL with A43Q, Y49A
notes: as for B2
B18: Anti-IL-12 antibody Ab1 variant G44Q VH/- (antibody, name in Kabat numbering, V domains shown)
VH: B2 VH with Q37V, G44Q
VL: B2 VL
notes: as for B2
B19: Anti-IL-12 antibody Ab1 variant L45Q VH/Y49A, F98M VL (antibody, name in Kabat numbering, V domains shown)
VH: B2 VH with Q37V, L45Q
VL: B2 VL with Y49A, F98M
notes: as for B2
B20: Anti-IL-12 antibody Ab1 variant F100aI VH/- (antibody, name in Kabat numbering, V domains shown)
VH: B2 VH with Q37V, F105I
VL: B2 VL
notes: Ab1 with a CDR substitution at the VH/VL interface; Kabat numbering
B21: Anti-IL-12 antibody Ab1 variant L45Q VH/- (antibody, name in Kabat numbering, V domains shown)
VH: B2 VH with Q37V, L45Q
VL: B2 VL
notes: as for B2
B22: Anti-IL-12 antibody Ab1 variant L45Q VH/P44A, Y49A VL (antibody, name in Kabat numbering, V domains shown)
VH: B2 VH with Q37V, L45Q
VL: B2 VL with P44A, Y49A
notes: as for B2
B23: Anti-IL-12 antibody Ab1 variant F100aI VH/P44A, Y49A VL (antibody, name in Kabat numbering, V domains shown)
VH: B2 VH with Q37V, F105I
VL: B2 VL with P44A, Y49A
notes: as for B2
B24: Anti-IL-12 antibody Ab1 variant F100aI VH/Y49A, F98L VL (antibody, name in Kabat numbering, V domains shown)
VH: B2 VH with Q37V, F105I
VL: B2 VL with Y49A, F98L
notes: as for B2
B25: Anti-IL-12 antibody Ab1 variant V37S VH/- (antibody, name in Kabat numbering, V domains shown)
VH: B2 VH with Q37S
VL: B2 VL
notes: as for B2
B26: Anti-IL-12 antibody Ab1 variant L45Q VH/L46Q, Y49A VL (antibody, name in Kabat numbering, V domains shown)
VH: B2 VH with Q37V, L45Q
VL: B2 VL with L46Q, Y49A
notes: as for B2
B27: Anti-IL-12 antibody Ab1 variant -/F98A VL (antibody)
heavy: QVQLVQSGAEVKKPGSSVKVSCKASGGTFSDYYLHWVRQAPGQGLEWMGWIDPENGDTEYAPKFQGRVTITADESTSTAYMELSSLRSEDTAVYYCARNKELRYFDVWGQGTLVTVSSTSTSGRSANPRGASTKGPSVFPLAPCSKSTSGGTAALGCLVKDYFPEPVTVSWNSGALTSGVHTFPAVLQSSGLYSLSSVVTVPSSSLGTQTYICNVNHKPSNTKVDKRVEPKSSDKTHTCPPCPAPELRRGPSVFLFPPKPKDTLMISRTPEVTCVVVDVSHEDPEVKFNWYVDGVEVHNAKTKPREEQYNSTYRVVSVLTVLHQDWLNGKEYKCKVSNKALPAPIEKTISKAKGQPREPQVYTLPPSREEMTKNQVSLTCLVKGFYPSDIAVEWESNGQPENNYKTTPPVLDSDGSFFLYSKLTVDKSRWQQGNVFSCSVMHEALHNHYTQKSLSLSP
light: B1 light with F98A
notes: as for B2
B28: Anti-IL-12 antibody Ab1 variant L45Q VH/Y49A, Y87L VL (antibody, name in Kabat numbering, V domains shown)
VH: B2 VH with Q37V, L45Q
VL: B2 VL with Y49A, Y87L
notes: as for B2
B29: Anti-IL-12 antibody Ab1 variant -/Y87A VL (antibody, V domains shown)
VH: B2 VH with Q37V
VL: B2 VL with Y87A
notes: as for B2
B30: Anti-IL-12 antibody Ab1 variant -/F98L VL (antibody)
heavy: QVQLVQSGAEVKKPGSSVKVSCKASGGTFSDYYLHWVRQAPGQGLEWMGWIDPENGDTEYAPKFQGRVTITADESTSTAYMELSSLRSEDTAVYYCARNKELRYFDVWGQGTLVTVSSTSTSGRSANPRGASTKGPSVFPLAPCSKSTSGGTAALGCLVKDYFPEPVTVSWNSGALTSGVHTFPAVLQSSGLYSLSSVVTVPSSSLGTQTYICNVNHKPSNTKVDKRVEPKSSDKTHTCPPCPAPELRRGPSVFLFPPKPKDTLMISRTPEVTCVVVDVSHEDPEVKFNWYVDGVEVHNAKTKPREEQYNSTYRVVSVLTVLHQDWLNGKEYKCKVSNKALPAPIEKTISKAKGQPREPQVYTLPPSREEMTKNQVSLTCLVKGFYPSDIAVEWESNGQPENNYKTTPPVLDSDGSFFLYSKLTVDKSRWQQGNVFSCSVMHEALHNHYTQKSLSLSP
light: B1 light with F98L
notes: as for B2
B31: Anti-IL-12 antibody Ab1 variant -/P44A VL (antibody, V domains shown)
VH: B2 VH with Q37V
VL: B2 VL with P44A
notes: as for B2

biological target: T1, human IL-12; experiment: SPR (Biacore T200), 37 C, pH 7.4; captured antibody, IL-12 analyte
Procedure: The affinity of anti-IL-12 antibodies binding to human IL-12 at pH 7.4 were determined at 37 degrees C. using Biacore T200 instrument (Cytiva). Anti-human Fc antibody (Cytiva) was immobilized onto all flow cells (FCs) of a CM4 sensor chip using amine coupling kit (Cytiva). All antibodies and analytes were prepared in ACES pH 7.4 containing 20 mM ACES, 150 mM NaCl, 0.05% Tween 20, 0.005% NaN₃. Each antibody was captured onto the sensor surface by anti-human Fc antibody. Antibody capture levels were aimed at 50 response unit (RU). 5 nM of human IL-12 were injected as analyte, followed by dissociation. Sensor surface was regenerated each cycle with 3M MgCl₂. […] Based on the results in Table 9, it is observed that binding kinetics of anti-IL-12 antibody AbI variants towards IL-12 were not drastically changed compared to control (−/−).

Row | Kd | Binder
1 | 0.948 nM | B1
2 | 1.48 nM | B2
3 | 1.46 nM | B3
4 | 3.48 nM | B4
5 | 0.937 nM | B5
6 | 3.68 nM | B6
7 | 1.62 nM | B7
8 | 1.17 nM | B8
9 | 0.685 nM | B9
10 | 1.27 nM | B10
11 | 1.22 nM | B11
12 | 2.1 nM | B12
13 | 0.94 nM | B13
14 | 1.33 nM | B14
15 | 3.56 nM | B15
16 | 1.74 nM | B16

Row | Kd | Binder
17 | 2.23 nM | B17
18 | 0.793 nM | B18
19 | 3.27 nM | B19
20 | 0.571 nM | B20
21 | 1.3 nM | B21
22 | 2.74 nM | B22
23 | 1.25 nM | B23
24 | 1.44 nM | B24
25 | 0.789 nM | B25
26 | 2.82 nM | B26
27 | 1.03 nM | B27
28 | 3.61 nM | B28
29 | 1.21 nM | B29
30 | 0.499 nM | B30
31 | 0.858 nM | B31
